{
  "source": "paper PMC11167270",
  "about": "(Heliyon, 2024)",
  "molecules": {"B1": {"name": "Sac10b1 (natural protein, Sulfolobus acidocaldarius)", "chain": "MSSGATPSNVVLVGKKPVMNYVLAALTLLNQGVSEITIKARGRAISKAVDTVEIVRNRFLPDKIEVKEIRIGSQVVTSQDGRQSRVSTIEIGIRKKA"}, "B2": {"name": "Sac10b1 F59A (natural protein, Sulfolobus acidocaldarius)", "chain": "B1 chain with F59A"}, "B3": {"name": "Sac10b1 R58A (natural protein, Sulfolobus acidocaldarius)", "chain": "B1 chain with R58A"}},
  "key": {"[1]": {"target": "Sac10b2 (Sulfolobus acidocaldarius)", "assay": "AUC"}, "AUC": {"target": "the molecule itself", "assay": "AUC"}},
  "note": "Positions count from the first letter of the chain named. In names and notes the source's numbering stands.",
  "data": [
    {"molecule": "Sac10b2 (natural protein)", "values": [
      {"measurement": "stoichiometry N", "setting": "[1]", "value": 2}
    ]},
    {"molecule": "B1", "values": [
      {"measurement": "stoichiometry N", "setting": "AUC", "value": 2}
    ]},
    {"molecule": "B2", "values": [
      {"measurement": "stoichiometry N", "setting": "AUC", "value": 2}
    ]},
    {"molecule": "B3", "values": [
      {"measurement": "binding result", "setting": "AUC", "value": "binds"}
    ]}
  ]
}
